According to patent US20260217824A1 (Bristol-Myers Squibb, published 2026):
Where two headings read alike, the source gives them in different places. Values belong to the binder of their own block, whether it stands above or below them.

Experiments:
FcγRI (CD64) = FcγRI (CD64) (human, UniProt P12314 16-288); test: SPR, response as % of Rmax (maximum FcγR capacity), Example 10; set-up and concentrations not given
[1] = target: T1, FcγRIIA (CD32a-H131 variant) (human, UniProt P12318 36-218); test: as above
T1 sequence (looked up): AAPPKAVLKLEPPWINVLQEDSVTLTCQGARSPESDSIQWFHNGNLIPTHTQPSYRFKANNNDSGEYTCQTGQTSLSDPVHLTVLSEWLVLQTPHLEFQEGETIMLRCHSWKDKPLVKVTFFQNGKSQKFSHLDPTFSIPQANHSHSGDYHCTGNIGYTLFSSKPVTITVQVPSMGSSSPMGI

[2] = target: T2, FcγRIIA (CD32a-R131 variant) (human, UniProt P12318 36-218); test: as above
T2 sequence (looked up): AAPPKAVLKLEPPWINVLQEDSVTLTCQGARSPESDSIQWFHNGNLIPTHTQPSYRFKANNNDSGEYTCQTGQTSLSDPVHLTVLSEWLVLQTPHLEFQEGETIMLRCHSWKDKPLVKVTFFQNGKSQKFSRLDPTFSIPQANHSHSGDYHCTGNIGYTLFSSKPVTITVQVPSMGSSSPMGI

FcγRIIB (CD32b) [3] = target: T3, FcγRIIB (CD32b) (human, UniProt P31994 43-217); test: SPR sensorgrams, Example 10; response axis without unit, no time axis; set-up and concentrations not given
T3 sequence (looked up): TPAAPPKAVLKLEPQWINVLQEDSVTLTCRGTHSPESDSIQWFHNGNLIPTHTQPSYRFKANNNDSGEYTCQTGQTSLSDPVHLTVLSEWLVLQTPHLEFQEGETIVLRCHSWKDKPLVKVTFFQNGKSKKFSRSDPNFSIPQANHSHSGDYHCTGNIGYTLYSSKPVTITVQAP

[4] = target: T4, FcγRIIIA (CD16a-V158 variant) (human, UniProt P08637 17-208); test: as above
T4 sequence (P08637 other isoform, or with tags, fused parts or gaps mutant limits assumed): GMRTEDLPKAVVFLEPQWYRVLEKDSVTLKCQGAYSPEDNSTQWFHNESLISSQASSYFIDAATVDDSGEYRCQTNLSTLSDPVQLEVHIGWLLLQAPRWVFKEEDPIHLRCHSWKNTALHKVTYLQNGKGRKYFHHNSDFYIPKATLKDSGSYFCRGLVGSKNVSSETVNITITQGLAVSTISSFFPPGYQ

[5] = target: T5, FcγRIIIB (CD16b-NA2 variant) (human, UniProt O75015 17-200); test: as above
T5 sequence (O75015 other isoform, or with tags, fused parts or gaps mutant limits assumed): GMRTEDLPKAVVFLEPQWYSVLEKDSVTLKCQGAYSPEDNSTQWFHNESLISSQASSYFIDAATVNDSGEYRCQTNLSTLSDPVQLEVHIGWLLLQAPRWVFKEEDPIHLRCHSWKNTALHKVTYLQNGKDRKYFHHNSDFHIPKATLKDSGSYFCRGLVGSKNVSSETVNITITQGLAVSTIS

[6] = target: T6, CynoTREM1 (as named in Table 3) (cynomolgus); test: SPR (Biacore)
T6 construct: also called cynomolgus TREM-1
T6 chain: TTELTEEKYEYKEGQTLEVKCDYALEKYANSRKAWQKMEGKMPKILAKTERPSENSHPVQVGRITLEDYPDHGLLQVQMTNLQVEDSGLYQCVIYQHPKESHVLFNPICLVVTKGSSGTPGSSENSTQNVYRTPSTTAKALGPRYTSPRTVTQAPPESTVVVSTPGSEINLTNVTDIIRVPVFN

[7] = target: T7, cynomolgus TREM-1 on cells (cynomolgus); test: cell-based or functional assay
T7 chain: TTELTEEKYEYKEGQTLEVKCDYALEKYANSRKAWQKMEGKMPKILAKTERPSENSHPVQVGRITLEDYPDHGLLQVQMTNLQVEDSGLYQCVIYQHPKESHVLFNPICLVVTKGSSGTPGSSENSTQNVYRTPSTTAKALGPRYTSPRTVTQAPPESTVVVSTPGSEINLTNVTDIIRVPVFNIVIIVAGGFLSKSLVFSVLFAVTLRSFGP

[8] = target: T7, cynomolgus TREM-1 on cells; test: in vivo receptor occupancy against serum concentration, Emax model, cynomolgus monkeys
Protocol: Upon antibody administration, pharmacokinetics, anti-drug antibodies (ADA), TREM-1 receptor occupancy (RO), and ex vivo pharmacodynamics responses were examined at pre-determined time points.
(§1) A direct-effect inhibitory model was used to describe the PD response. […] The observed (open circle) and model-predicted endpoints (solid line) are provided in FIGS. 16A (0.1 mg/kg subcutaneous dosing) and 16B (10 mg/kg subcutaneous dosing).

[9] = target: T7, cynomolgus TREM-1 on cells; test: estimate of the 2-compartment PK model with TMDD fitted to cynomolgus PK/RO/PD data (mAb affinity for TREM-1); cyno-model estimate (CV 12%) of the TMDD PK/PD fit, not a direct binding assay
Protocol: as §1

[10] = target: T5, FcγRIIIB (CD16b-NA2 variant); test: SPR, response as % of Rmax (maximum FcγR capacity), Example 10; set-up and concentrations not given
[11] = target: T1, FcγRIIA (CD32a-H131 variant); test: SPR sensorgrams, Example 10; response axis without unit, no time axis; set-up and concentrations not given
[12] = target: T2, FcγRIIA (CD32a-R131 variant); test: as above
FcγRIIB (CD32b) [13] = target: T3, FcγRIIB (CD32b); test: as above; remark: listed apart in the source
[14] = target: T4, FcγRIIIA (CD16a-V158 variant); test: as above; remark: listed apart in the source

Sequence of FcγRI (CD64) (P12314 16-288 limits assumed): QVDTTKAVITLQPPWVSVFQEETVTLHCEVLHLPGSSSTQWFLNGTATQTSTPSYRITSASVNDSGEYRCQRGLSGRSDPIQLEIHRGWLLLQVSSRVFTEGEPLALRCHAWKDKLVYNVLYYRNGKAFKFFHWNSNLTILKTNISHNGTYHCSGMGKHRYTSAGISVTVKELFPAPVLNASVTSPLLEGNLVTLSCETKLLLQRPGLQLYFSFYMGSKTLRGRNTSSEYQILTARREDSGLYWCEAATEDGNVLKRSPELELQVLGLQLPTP

B1: mAb 0318-IgG1-Aba (antibody)
heavy: not shown
light: DIVLTQSPDSLAVSLGERATINCRASQSVDTFDYSFLHWYQQKPGQPPKLLIYRASNLESGVPDRFSGSGSGTDFTLTISSLQAEDVAVYYCQQSNQDPYTFGQGTKLEIKRTVAAPSVFIFPPSDEQLKSGTASVVCLLNNFYPREAKVQWKVDNALQSGNSQESVTEQDSKDSTYSLSSTLTLSKADYEKHKVYACEVTHQGLSSPVTKSFNRGEC
notes: IgG1 constant region with K214R, C226S, C229S, P238S (EU); also called IgG1-Aba mod; FcAba-1
binding result (FcγRI (CD64)): binds | binding result [1]: no binding | binding result [2]: no binding | binding result (FcγRIIB (CD32b) [3]): no binding | binding result [4]: no binding | binding result [5]: no binding

B3: mAb 0318-IgG1.3f (antibody)
heavy: EVQLVESGGGLVQPGGSLKLSCAASGFTFSTYAMHWVRQASGKGLEWVGRIRTKSSNYATYYAASVKGRFTISRDDSKNTAYLQMNSLKTEDTAVYYCTRDMGIRRQFAYWGQGTLVTVSSASTKGPSVFPLAPSSKSTSGGTAALGCLVKDYFPEPVTVSWNSGALTSGVHTFPAVLQSSGLYSLSSVVTVPSSSLGTQTYICNVNHKPSNTKVDKRVEPKSCDKTHTCPPCPAPEAEGAPSVFLFPPKPKDTLMISRTPEVTCVVVDVSHEDPEVKFNWYVDGVEVHNAKTKPREEQYNSTYRVVSVLTVLHQDWLNGKEYKCKVSNKALPAPIEKTISKAKGQPREPQVYTLPPSREEMTKNQVSLTCLVKGFYPSDIAVEWESNGQPENNYKTTPPVLDSDGSFFLYSKLTVDKSRWQQGNVFSCSVMHEALHNHYTQKSLSLSPGK
light: DIVLTQSPDSLAVSLGERATINCRASQSVDTFDYSFLHWYQQKPGQPPKLLIYRASNLESGVPDRFSGSGSGTDFTLTISSLQAEDVAVYYCQQSNQDPYTFGQGTKLEIKRTVAAPSVFIFPPSDEQLKSGTASVVCLLNNFYPREAKVQWKVDNALQSGNSQESVTEQDSKDSTYSLSSTLTLSKADYEKHKVYACEVTHQGLSSPVTKSFNRGEC
notes: IgG1 constant region with L234A, L235E, G237A (EU)
Kd [6]: 3.4 nM | IC50 (nM), estimate of the cynomolgus PK/PD model [7]: 1.9 nM | EC50 [8]: 1.6 nM | binding result (FcγRI (CD64)): binds | binding result [2]: binds | Kd [9]: 0.64 nM

Results, then the binder that gave them:

binding result (FcγRI (CD64)): binds | binding result [2]: binds
B2: mAb 0318-IgG1.1f (antibody)
heavy: EVQLVESGGGLVQPGGSLKLSCAASGFTFSTYAMHWVRQASGKGLEWVGRIRTKSSNYATYYAASVKGRFTISRDDSKNTAYLQMNSLKTEDTAVYYCTRDMGIRRQFAYWGQGTLVTVSSASTKGPSVFPLAPSSKSTSGGTAALGCLVKDYFPEPVTVSWNSGALTSGVHTFPAVLQSSGLYSLSSVVTVPSSSLGTQTYICNVNHKPSNTKVDKRVEPKSCDKTHTCPPCPAPEAEGAPSVFLFPPKPKDTLMISRTPEVTCVVVDVSHEDPEVKFNWYVDGVEVHNAKTKPREEQYNSTYRVVSVLTVLHQDWLNGKEYKCKVSNKALPSSIEKTISKAKGQPREPQVYTLPPSREEMTKNQVSLTCLVKGFYPSDIAVEWESNGQPENNYKTTPPVLDSDGSFFLYSKLTVDKSRWQQGNVFSCSVMHEALHNHYTQKSLSLSPG
light: DIVLTQSPDSLAVSLGERATINCRASQSVDTFDYSFLHWYQQKPGQPPKLLIYRASNLESGVPDRFSGSGSGTDFTLTISSLQAEDVAVYYCQQSNQDPYTFGQGTKLEIKRTVAAPSVFIFPPSDEQLKSGTASVVCLLNNFYPREAKVQWKVDNALQSGNSQESVTEQDSKDSTYSLSSTLTLSKADYEKHKVYACEVTHQGLSSPVTKSFNRGEC
notes: IgG1 constant region with L234A, L235E, G237A, A330S, P331S (EU)

binding result (FcγRI (CD64)): binds | binding result [10]: no binding | binding result [11]: no binding | binding result [12]: no binding | binding result (FcγRIIB (CD32b) [13]): no binding | binding result [14]: no binding
B4: mAb 0318-IgG4-Aba (antibody)
heavy: not shown
light: DIVLTQSPDSLAVSLGERATINCRASQSVDTFDYSFLHWYQQKPGQPPKLLIYRASNLESGVPDRFSGSGSGTDFTLTISSLQAEDVAVYYCQQSNQDPYTFGQGTKLEIKRTVAAPSVFIFPPSDEQLKSGTASVVCLLNNFYPREAKVQWKVDNALQSGNSQESVTEQDSKDSTYSLSSTLTLSKADYEKHKVYACEVTHQGLSSPVTKSFNRGEC
notes: IgG4 CH1 with IgG1 CH2 and CH3, C226S, C229S, P238S (EU); also called IgG4-Aba mod; FcAba-4
